Measurements as given in patent US20100239633A1.

Target: Human FcγRIIIa (human) (UniProt P08637)
Assay: SPR (Biacore), FcγRIIIa immobilized; 1:1 with mass transfer fit

Substance	Ka	Kd
G-011 (from UniProt P01854 104-210)	1.8e+07 M⁻¹	5500 nM
mouse IgG2a (antibody)	2.1e+08 M⁻¹	4.7 nM
